Measurements taken from patent US20050255553A1 (LUDWIG INSTITUTE FOR CANCER RESEARCH, published 2005).
One block for each binder: values may come before it.

Tests used:
HLA-B44 (HLA-B*4403) [1] = target: T1, HLA-B44 (HLA-B*4403) (human); assay: lysis of peptide-pulsed BAGM-EBV cells by TIL 2.4
T1 construct: whole, on cells; MHC class I molecule on BAGM-EBV cells or transfected COS-7 cells
Experimental: FIG. 4 depicts the lysis of BAGM-EBV cells pulsed with the MAGE.C2.B44 peptides. […] TIL2.4 was added at a ratio of 15:1. The chromium release was measured after 4 hours. The nonapeptide (-▪-) is the antigenic sequence recognized by the TIL.
To identify the antigenic peptide, several minigenes were generated by amplifying different fragments of the MAGE-C2 cDNA by PCR. The PCR products were cloned into plasmid vector pCDNA3.1/His by TOPO T/A cloning (MAGE-C2/HLA-A2 patent and Ma W et al., Int. J. Cancer: in press, incorporated herein by reference). COS-7 cells were transfected with vectors encoding HLA-B44 and vectors encoding the different minigenes described above. TIL 2.4 were added to the transfected cells and TNF production was measured (FIG. 3X). […] Candidate peptides bearing the binding motif for HLA-B44 were then synthesized and pulsed onto BAGM-EBV cells. These pulsed cells were combined with TIL2.4 and assayed for lysis. […] The nonapeptide and the decapeptide were then synthesized and assayed individually.

HLA-B44 (HLA-B*4403) [2] = target: T1, HLA-B44 (HLA-B*4403); assay: concluded from lysis of peptide-pulsed BAGM-EBV cells and TNF assays with HLA-B44 transfectants; no direct binding assay

- binding result (HLA-B44 (HLA-B*4403) [1]): binds
Binder: SESIKKKVLEF (Synthetic peptide) [MAGE-C2 11-mer peptide SESIKKKVLEF (SEQ ID NO: 106)]

- binding result (HLA-B44 (HLA-B*4403) [2]): binds
B1: MAGE-C2 nonapeptide SESIKKKVL (SEQ ID NO: 107) (peptide)
peptide: SESIKKKVL
notes: Synthetic peptide; also called MAGE.C2 antigenic peptide
